Patent US20110020353A1 (published 2011)

Target: T1, 161P2F10B variant 1 (human), on the cell surface (human, UniProt O14638 1-875)
T1 construct: Reported to be dimeric on the cell surface; also called 161P2F10B v.1; CD203c
Test: FACS on KU-812 cells, serial dilutions, one site binding fit

B1: Ha16-1.42 (antibody, V domains shown)
VH: EVQLVQSGAEVKKPGESLKISCKGSGYRFTSYWIGWVRQMPGKGLEWMGIIYPGDSDTRYSPSFQGQVTISADKSISTAYLQWSSLKASDTAMYYCARKDYYYYSMDVWGQGTTVTVSS
VL: QSALTQPASVSGSPGQSITISCTGTSSDVGRFNYVSWYQQRPGKAPKLMIYAVNIRPSGVSNRFSGSKSGNTASLTISGLQAEDEAGYYCSSYTSSSTLLVFGGGTKLTVLG
For B1, which Kd is on record?
The Kd was 20 pM.
